Laboratory results: article PMC12908882 (Molecular cancer therapeutics, 2026)
Values belong to the binder of their own block, whether it stands above or below them.

Legend:
[1] = target: Human L1CAM Ig-like domains, residues 21-605, C-terminal 6x His tag (Homo sapiens, UniProt P32004); experiment: BLI
[2] = target: Human L1CAM expressed on transfected HEK293T cells (HEK293T-L1CAM cells) (Homo sapiens, UniProt P32004); experiment: flow cytometry on cells
[3] = target: Extracellular domain of human L1CAM fused to a poly-histidine tag (L1CAM-His) (Homo sapiens, UniProt P32004); experiment: BLI
[4] = target: His-tagged, monomeric mouse L1CAM protein (Mus musculus, UniProt P11627); experiment: BLI
[5] = target: Human L1CAM fibronectin-like type III (FNIII) repeats, residues 606-1116, C-terminal 6x His tag (Homo sapiens, UniProt P32004); experiment: BLI
Chain of Human L1CAM fibronectin-like type III (FNIII) repeats, residues 606-1116, C-terminal 6x His tag (P32004 606-1116): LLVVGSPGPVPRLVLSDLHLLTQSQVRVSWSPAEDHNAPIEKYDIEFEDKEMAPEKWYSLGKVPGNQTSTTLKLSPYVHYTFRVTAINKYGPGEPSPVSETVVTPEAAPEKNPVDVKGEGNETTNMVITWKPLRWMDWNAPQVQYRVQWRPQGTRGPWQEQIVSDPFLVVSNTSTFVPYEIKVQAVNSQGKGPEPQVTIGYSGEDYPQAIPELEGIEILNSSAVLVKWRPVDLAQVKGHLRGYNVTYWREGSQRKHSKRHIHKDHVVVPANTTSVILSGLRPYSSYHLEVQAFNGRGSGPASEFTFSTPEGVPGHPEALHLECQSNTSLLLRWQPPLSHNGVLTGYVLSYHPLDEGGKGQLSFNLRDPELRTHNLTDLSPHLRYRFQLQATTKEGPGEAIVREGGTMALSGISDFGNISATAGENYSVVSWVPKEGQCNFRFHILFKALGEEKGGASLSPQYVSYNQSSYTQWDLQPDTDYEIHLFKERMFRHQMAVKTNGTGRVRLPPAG

Chain of Human L1CAM expressed on transfected HEK293T cells (HEK293T-L1CAM cells) (P32004 20-1257): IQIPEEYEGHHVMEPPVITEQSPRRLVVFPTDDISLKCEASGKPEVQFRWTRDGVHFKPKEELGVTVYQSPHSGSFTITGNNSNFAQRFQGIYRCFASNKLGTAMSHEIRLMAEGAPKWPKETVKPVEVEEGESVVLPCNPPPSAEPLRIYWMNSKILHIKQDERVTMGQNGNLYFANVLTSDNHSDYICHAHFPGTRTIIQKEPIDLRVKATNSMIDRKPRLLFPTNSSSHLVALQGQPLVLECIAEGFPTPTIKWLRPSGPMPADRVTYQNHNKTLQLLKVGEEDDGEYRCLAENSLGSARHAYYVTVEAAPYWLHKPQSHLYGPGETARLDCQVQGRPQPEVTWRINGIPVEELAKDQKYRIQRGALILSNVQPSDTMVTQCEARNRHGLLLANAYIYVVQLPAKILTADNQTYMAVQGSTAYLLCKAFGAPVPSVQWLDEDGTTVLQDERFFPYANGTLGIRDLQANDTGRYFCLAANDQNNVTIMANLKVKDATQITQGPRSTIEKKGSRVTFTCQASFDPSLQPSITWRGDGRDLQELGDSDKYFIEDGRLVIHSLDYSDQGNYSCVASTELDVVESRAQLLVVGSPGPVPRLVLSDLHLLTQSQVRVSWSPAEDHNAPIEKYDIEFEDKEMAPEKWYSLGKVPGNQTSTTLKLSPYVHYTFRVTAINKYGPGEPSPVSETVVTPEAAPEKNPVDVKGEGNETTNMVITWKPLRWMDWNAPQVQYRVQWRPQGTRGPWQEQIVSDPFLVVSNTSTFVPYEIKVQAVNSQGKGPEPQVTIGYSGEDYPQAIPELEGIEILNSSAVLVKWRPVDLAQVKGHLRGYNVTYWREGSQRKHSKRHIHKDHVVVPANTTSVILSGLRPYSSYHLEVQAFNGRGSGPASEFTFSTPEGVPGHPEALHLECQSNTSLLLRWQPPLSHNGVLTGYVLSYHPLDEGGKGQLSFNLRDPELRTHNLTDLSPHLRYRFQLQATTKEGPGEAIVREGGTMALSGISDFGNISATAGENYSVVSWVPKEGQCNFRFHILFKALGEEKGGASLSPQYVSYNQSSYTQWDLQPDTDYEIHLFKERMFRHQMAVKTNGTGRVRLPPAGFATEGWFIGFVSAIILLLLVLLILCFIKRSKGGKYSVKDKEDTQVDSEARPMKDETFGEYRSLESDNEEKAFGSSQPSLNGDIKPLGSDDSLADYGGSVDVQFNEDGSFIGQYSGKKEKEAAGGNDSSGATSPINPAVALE
Chain of Human L1CAM Ig-like domains, residues 21-605, C-terminal 6x His tag (P32004 21-605): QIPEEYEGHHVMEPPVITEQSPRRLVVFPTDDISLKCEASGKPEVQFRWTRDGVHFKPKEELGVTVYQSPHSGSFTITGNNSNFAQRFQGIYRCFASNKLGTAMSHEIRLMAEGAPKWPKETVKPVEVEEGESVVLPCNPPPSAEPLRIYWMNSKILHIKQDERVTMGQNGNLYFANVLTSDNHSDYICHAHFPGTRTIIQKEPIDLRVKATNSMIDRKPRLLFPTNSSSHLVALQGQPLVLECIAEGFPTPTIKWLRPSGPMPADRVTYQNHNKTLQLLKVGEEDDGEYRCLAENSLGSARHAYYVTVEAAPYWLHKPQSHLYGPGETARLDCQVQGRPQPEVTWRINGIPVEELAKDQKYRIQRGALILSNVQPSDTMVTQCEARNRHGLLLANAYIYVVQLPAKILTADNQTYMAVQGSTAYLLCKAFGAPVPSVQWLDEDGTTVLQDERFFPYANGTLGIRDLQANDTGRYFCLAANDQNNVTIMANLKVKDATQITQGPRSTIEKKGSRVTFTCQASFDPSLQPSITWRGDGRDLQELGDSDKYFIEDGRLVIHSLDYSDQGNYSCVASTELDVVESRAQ
Chain of Extracellular domain of human L1CAM fused to a poly-histidine tag (L1CAM-His) (P32004 20-1120): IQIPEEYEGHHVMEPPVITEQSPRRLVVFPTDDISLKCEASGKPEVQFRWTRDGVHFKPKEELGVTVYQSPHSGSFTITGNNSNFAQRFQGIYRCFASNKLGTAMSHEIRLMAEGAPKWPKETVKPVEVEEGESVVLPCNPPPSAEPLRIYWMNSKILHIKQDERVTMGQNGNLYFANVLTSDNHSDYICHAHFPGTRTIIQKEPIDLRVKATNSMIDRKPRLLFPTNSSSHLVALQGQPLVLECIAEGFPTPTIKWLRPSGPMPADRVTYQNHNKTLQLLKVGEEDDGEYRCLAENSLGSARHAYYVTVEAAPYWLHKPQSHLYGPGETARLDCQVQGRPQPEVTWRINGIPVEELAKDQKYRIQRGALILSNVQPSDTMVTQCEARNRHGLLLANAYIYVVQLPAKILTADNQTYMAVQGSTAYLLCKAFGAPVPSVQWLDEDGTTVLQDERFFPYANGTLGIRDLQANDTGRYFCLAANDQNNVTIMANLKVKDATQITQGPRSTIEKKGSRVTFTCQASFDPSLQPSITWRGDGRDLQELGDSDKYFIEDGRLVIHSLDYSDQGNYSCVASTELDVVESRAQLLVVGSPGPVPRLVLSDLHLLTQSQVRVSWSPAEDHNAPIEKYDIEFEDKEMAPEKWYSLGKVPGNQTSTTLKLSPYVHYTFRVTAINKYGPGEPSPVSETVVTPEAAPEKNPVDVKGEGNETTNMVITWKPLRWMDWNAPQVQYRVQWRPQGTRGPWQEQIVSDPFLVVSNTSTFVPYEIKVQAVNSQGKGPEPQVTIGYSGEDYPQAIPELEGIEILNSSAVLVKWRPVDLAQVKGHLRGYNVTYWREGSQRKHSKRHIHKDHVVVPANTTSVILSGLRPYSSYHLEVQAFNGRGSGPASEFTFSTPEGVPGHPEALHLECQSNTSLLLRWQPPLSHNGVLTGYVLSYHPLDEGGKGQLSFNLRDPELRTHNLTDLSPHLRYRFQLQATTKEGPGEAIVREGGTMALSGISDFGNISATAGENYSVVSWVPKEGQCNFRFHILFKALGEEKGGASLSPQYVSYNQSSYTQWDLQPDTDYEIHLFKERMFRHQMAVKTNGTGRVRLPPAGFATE
Chain of His-tagged, monomeric mouse L1CAM protein (P11627 whole entry, looked up, the tested form may be a part): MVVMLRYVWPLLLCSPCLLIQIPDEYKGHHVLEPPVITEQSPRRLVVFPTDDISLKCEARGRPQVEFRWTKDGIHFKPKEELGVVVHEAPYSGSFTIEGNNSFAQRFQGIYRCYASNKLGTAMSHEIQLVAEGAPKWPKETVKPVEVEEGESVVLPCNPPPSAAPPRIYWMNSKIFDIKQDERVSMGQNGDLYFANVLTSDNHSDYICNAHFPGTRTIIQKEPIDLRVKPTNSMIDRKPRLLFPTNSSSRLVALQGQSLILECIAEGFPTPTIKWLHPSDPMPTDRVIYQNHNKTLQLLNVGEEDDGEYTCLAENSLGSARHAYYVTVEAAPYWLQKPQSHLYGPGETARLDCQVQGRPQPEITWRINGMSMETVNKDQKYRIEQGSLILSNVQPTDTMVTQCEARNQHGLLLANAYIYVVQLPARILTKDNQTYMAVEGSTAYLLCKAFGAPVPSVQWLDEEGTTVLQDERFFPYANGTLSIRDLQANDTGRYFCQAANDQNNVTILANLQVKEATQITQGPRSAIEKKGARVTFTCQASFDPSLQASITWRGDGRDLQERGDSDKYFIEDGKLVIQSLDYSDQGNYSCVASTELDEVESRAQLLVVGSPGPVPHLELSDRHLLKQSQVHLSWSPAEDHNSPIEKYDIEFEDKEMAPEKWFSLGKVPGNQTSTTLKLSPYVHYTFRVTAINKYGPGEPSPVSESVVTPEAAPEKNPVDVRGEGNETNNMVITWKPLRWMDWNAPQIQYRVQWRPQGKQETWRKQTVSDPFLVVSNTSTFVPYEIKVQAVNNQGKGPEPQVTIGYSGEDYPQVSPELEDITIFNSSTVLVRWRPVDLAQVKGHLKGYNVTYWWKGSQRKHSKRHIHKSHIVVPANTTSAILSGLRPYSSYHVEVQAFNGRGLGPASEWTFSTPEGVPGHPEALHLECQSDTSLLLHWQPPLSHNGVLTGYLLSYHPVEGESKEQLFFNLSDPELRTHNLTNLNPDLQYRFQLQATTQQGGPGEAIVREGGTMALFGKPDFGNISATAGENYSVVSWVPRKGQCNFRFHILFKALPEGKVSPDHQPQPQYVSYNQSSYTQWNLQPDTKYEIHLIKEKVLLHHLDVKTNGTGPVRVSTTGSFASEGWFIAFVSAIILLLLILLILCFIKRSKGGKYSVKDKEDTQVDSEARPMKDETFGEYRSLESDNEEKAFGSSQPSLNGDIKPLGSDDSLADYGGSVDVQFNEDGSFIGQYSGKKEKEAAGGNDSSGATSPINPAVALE

binding result [1]: binds
binding result [2]: binds
B1: 13F04 monoclonal antibody to human L1CAM (antibody, V domains shown)
VH: QVQLQQPGAELVKPGASVKLSCKASGYIFISYWMHWVKQRPGQGLEWIGEINPRNGRTNYNEKFKSKATLTVDKSSSTAYMQLTSLTSEDSAVYYCARGGDYGGSFDYWGQGTTLTVSS
VL: DIVLTQSPASLAVSLGQRATISCRASESVDSYGNSFMHWYQQKPGQPPKLLIYRASNLESGIPARFSGSGSRTDFTLTVNPVEADDVATYYCQQSNEDPWTFGGGTKLEIK

binding result [1]: binds
binding result [3]: binds
binding result [4]: binds
binding result [2]: binds
B2: 14A10 monoclonal antibody to human L1CAM (antibody, V domains shown)
VH: EVQMVESGGGLVQPGGSLRLSCAAPGFIFSSYNMNWVRQAPGKGLEWVSYISSSSSTTYYADSVKGRFTISRDNAKNSLYLQMNSLRDEDTAVYYCASLYSGYDYYYYYGMDVWGQGTTVTVSS
VL: DIVMTQTPLSSPVSLGQPASISCRSSQSLVHSDGNTYLSWLQQRPGQPPRVLIYKISKRFSGVPDRFSGSGAGTDFTLKISRVEAEDVGVYYCMQATQFPFTFGPGTKVDIK

binding result [5]: binds
binding result [3]: binds
binding result [2]: binds
B3: 143G03 monoclonal antibody to human L1CAM (antibody, V domains shown)
VH: QVQLVQSGAEVKKPGSSVKVSCKASGYTFTNYYIHWVRQAPGQGLEWMGKIGPGSGSPYYQGMFKDRVTITADESTSTAYMELSSLRSEDTAVYYCARWLLPFDYWGQGTLVTVSS
VL: EIVLTQSPGTLSLSPGERATLSCRASSSVNYMHWYQQKPGQAPRLLIYATSILASGIPDRFSGSGSGTDYTLTISRLEPEDFAVYYCQQFSSDPLTFGGGTKVEIK
